Where no end group is shown, it is not given here.

For experiment [1], the target named is human angiotensin 2 type 1 receptor (human) (UniProt P30556). As to the kind of experiment: cell-based or functional assay.
For experiment [2], the target named is rat angiotensin 2 type 1 receptor (rat) (UniProt P25095). As to the kind of experiment: cell-based or functional assay.
Chain of rat angiotensin 2 type 1 receptor (rat) (P25095 whole entry): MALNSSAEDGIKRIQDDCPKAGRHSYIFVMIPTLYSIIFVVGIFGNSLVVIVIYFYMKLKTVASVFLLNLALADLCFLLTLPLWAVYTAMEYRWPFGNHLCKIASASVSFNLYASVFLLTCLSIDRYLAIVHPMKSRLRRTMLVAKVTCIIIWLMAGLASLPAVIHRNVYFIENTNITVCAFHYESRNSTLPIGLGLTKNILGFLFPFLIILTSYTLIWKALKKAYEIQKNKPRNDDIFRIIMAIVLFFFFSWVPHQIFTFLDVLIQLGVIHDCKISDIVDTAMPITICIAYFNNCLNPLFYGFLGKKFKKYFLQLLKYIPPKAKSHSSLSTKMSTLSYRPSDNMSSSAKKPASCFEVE

Chain of human angiotensin 2 type 1 receptor (human) (P30556 whole entry): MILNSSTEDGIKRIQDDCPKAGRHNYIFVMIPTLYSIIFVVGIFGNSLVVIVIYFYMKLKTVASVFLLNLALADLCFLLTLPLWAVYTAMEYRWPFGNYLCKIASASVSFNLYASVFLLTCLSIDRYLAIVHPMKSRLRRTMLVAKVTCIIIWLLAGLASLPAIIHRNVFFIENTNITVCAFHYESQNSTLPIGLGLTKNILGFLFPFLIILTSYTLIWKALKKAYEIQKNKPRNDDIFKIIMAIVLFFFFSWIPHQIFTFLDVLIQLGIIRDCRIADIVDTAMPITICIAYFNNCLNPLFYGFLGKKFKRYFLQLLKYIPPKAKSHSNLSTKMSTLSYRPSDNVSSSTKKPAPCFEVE

In experiment [1], RVYVHPA (N-terminal Me2Gly; C-terminal acid) [SEQ ID NO: 31 (Me2G-Arg-Val-Tyr-Val-His-Pro-Ala-OH)] had an IP One EC50 of over 10 µM, a b-arrestin2 EC50 of 0.1 µM and a b-arrestin2 Max of 58.1%. Also, in experiment [2], the IP One EC50 amounted to 0.013 µM, the IP One Max stood at 6.2%, the b-arrestin2 EC50 stood at 0.037 µM and the b-arrestin2 Max stood at 75.9%.
For the molecule VYIHPF (cyclic) [SEQ ID NO: 38 (Cyclo(Val-Tyr-Ile-His-Pro-Phe))], in experiment [1], the IP One EC50 is over 10 µM, the b-arrestin2 EC50 amounted to 0.68 µM and the b-arrestin2 Max is 43.1%. Besides, in experiment [2], the IP One EC50 is 0.92 µM, the IP One Max was determined as 20.8%, the b-arrestin2 EC50 was determined as 2.5 µM and the b-arrestin2 Max is 66.4%.
For RVYHHPA (N-terminal Sar; C-terminal acid) [SEQ ID NO: 22 (Sar-Arg-Val-Tyr-His-His-Pro-Ala-OH)], in experiment [1], the IP One EC50 is over 10 µM, the b-arrestin2 EC50 was found to be 0.27 µM and the b-arrestin2 Max came out at 54.5%. In addition, in experiment [2], the IP One EC50 was found to be 0.25 µM, the IP One Max stood at 5.2%, the b-arrestin2 EC50 came to 0.027 µM and the b-arrestin2 Max was determined as 74.3%.
For the molecule RVYKHPA (N-terminal Sar; C-terminal acid) [SEQ ID NO: 23 (Sar-Arg-Val-Tyr-Lys-His-Pro-Ala-OH)], in experiment [1], the IP One EC50 is over 10 µM, the b-arrestin2 EC50 is 0.044 µM and the b-arrestin2 Max is 61.2%. In addition, in experiment [2], the IP One EC50 amounted to 0.011 µM, the IP One Max was 10.3%, the b-arrestin2 EC50 was 0.039 µM and the b-arrestin2 Max worked out at 84.9%.
In the case of DRVYYHP-NH2 [SEQ ID NO: 57 (Asp-Arg-Val-Tyr-Tyr-His-Pro-NH2)], in experiment [1], the IP One EC50 turned out to be 0.0036 µM, the IP One Max is 10%, the b-arrestin2 EC50 worked out at 0.43 µM and the b-arrestin2 Max turned out to be 42.1%. Also, in experiment [2], the IP One EC50 was determined as 0.33 µM, the IP One Max turned out to be 35.3%, the b-arrestin2 EC50 came to 0.45 µM and the b-arrestin2 Max worked out at 64.4%.
RVYRHPA (N-terminal Sar; C-terminal acid) [SEQ ID NO: 24 (Sar-Arg-Val-Tyr-Arg-His-Pro-Ala-OH)]: in experiment [1], the IP One EC50 is over 10 µM, the b-arrestin2 EC50 was determined as 0.48 µM and the b-arrestin2 Max came to 61.3%. In experiment [2], this molecule yielded an IP One EC50 of 0.0074 µM, an IP One Max of 15.1%, a b-arrestin2 EC50 of 0.063 µM and a b-arrestin2 Max of 74.1%.
In experiment [1], RVYVHPI (N-terminal Sar; C-terminal acid) [SEQ ID NO: 11 (Sar-Arg-Val-Tyr-Val-His-Pro-Ile-OH)] came in with an IP One EC50 of over 10 µM, a b-arrestin2 EC50 of 0.0034 µM and a b-arrestin2 Max of 58.9%. In experiment [2], this molecule registered an IP One EC50 of 0.0035 µM, an IP One Max of 24.4%, a b-arrestin2 EC50 of 0.0061 µM and a b-arrestin2 Max of 80.7%.
Turning to DRVYFHP-NH2 [SEQ ID NO: 63 (Asp-Arg-Val-Tyr-Phe-His-Pro-NH2)], in experiment [1], the IP One EC50 was over 10 µM, the b-arrestin2 EC50 was 0.53 µM and the b-arrestin2 Max was determined as 35.9%. In experiment [2], this molecule showed an IP One EC50 of over 10 µM, a b-arrestin2 EC50 of 0.53 µM and a b-arrestin2 Max of 50.1%.
In experiment [1], RVYVHPI (N-terminal Sar; C-terminal amide) [SEQ ID NO: 12 (Sar-Arg-Val-Tyr-Val-His-Pro-Ile-NH2)] had an IP One EC50 of 0.19 µM, an IP One Max of 20.7%, a b-arrestin2 EC50 of 0.39 µM and a b-arrestin2 Max of 19.9%. In experiment [2], this molecule came in with an IP One EC50 of 0.079 µM, an IP One Max of 44.9%, a b-arrestin2 EC50 of 0.12 µM and a b-arrestin2 Max of 34.4%.
In experiment [1], ERVYYHP (N-methyl; C-terminal amide) [SEQ ID NO: 62 (N-Me-Glu-Arg-Val-Tyr-Tyr-His-Pro-NH2)] showed an IP One EC50 of over 10 µM, a b-arrestin2 EC50 of 1.3 µM and a b-arrestin2 Max of 24.7%. In experiment [2], the IP One EC50 was over 10 µM, the b-arrestin2 EC50 is 3.9 µM and the b-arrestin2 Max was found to be 44.2%.
Regarding RVYYHP (N-terminal Sar; C-terminal amide) [SEQ ID NO: 26 (Sar-Arg-Val-Tyr-Tyr-His-Pro-NH2)], in experiment [1], the IP One EC50 is over 10 µM, the b-arrestin2 EC50 was 0.075 µM and the b-arrestin2 Max was 51.9%. In experiment [2], this molecule registered an IP One EC50 of over 10 µM, a b-arrestin2 EC50 of 0.038 µM and a b-arrestin2 Max of 77.3%.
In experiment [1], ARVYVHPA (N-methyl residue; C-terminal acid) [SEQ ID NO: 33 (NMAla-Arg-Val-Tyr-Val-His-Pro-Ala-OH)] gave an IP One EC50 of over 10 µM, a b-arrestin2 EC50 of 0.04 µM and a b-arrestin2 Max of 54.9%. In experiment [2], the IP One EC50 is over 10 µM, the b-arrestin2 EC50 was determined as 0.031 µM and the b-arrestin2 Max came to 86.9%.
In the case of RVYYHPI (N-terminal Sar; C-terminal acid) [SEQ ID NO: 14 (Sar-Arg-Val-Tyr-Tyr-His-Pro-Ile-OH)], in experiment [1], the IP One EC50 came out at 0.16 µM, the IP One Max was determined as 13.5%, the b-arrestin2 EC50 was 0.008 µM and the b-arrestin2 Max came out at 59.3%. In experiment [2], this molecule gave an IP One EC50 of 0.032 µM, an IP One Max of 19.3%, a b-arrestin2 EC50 of 0.014 µM and a b-arrestin2 Max of 79%.
In the case of FVYIHPFVYIHPFVYIHP (cyclic) [SEQ ID NO: 37 (Cyclo(Phe-Val-Tyr-Ile-His-Pro-Phe-Val-Tyr-Ile-His-Pro-Phe-Val-Tyr-Ile-His-Pro))], in experiment [1], the IP One EC50 is over 10 µM, the b-arrestin2 EC50 was 1.7 µM and the b-arrestin2 Max was determined as 62.3%. In experiment [2], this molecule gave an IP One EC50 of 0.24 µM, an IP One Max of 14.7%, a b-arrestin2 EC50 of 1.9 µM and a b-arrestin2 Max of 60.7%.
On to RVYYHP (N-terminal Sar; C-terminal D-Phe) [SEQ ID NO: 28 (Sar-Arg-Val-Tyr-Tyr-His-Pro-D-Phe-OH)], for which, in experiment [1], the IP One EC50 is over 10 µM, the b-arrestin2 EC50 is 0.02 µM and the b-arrestin2 Max was 82.9%. Moreover, in experiment [2], the IP One EC50 amounted to 0.064 µM, the IP One Max was 24.6%, the b-arrestin2 EC50 came out at 0.019 µM and the b-arrestin2 Max came out at 91.4%.
With DRVYYHP (D-residue; C-terminal amide) [SEQ ID NO: 58 (D-Asp-Arg-Val-Tyr-Tyr-His-Pro-NH2)], in experiment [1], the IP One EC50 is over 10 µM, the b-arrestin2 EC50 came out at 0.33 µM and the b-arrestin2 Max came to 48.7%. In experiment [2], this molecule showed an IP One EC50 of 1.4 µM, an IP One Max of 9.94%, a b-arrestin2 EC50 of 0.26 µM and a b-arrestin2 Max of 81.1%.
Take RVYFHPA (N-terminal Sar; C-terminal acid) [SEQ ID NO: 21 (Sar-Arg-Val-Tyr-Phe-His-Pro-Ala-OH)]: in experiment [1], the IP One EC50 was over 10 µM, the b-arrestin2 EC50 came out at 0.033 µM and the b-arrestin2 Max is 64.4%. In experiment [2], this molecule showed an IP One EC50 of over 10 µM, a b-arrestin2 EC50 of 0.013 µM and a b-arrestin2 Max of 82.7%.
In experiment [1], ERVYYHP (D-residue; C-terminal amide) [SEQ ID NO: 60 (D-Glu-Arg-Val-Tyr-Tyr-His-Pro-NH2)] registered an IP One EC50 of over 10 µM, a b-arrestin2 EC50 of 0.34 µM and a b-arrestin2 Max of 44%. In experiment [2], this molecule returned an IP One EC50 of over 10 µM, a b-arrestin2 EC50 of 0.18 µM and a b-arrestin2 Max of 79.3%.
As to RVYIHP (N-terminal Sar; C-terminal norvaline) [SEQ ID NO: 35 (Sar-Arg-Val-Tyr-Ile-His-Pro-NVA-OH)], in experiment [1], the IP One EC50 is 0.0027 µM, the IP One Max worked out at 7.1%, the b-arrestin2 EC50 was determined as 0.012 µM and the b-arrestin2 Max was determined as 67.9%. Further, in experiment [2], the IP One EC50 was 0.012 µM, the IP One Max worked out at 30.5%, the b-arrestin2 EC50 is 0.0093 µM and the b-arrestin2 Max was 79.8%.
In experiment [1], RVYEHPA (N-terminal Sar; C-terminal acid) [SEQ ID NO: 20 (Sar-Arg-Val-Tyr-Glu-His-Pro-Ala-OH)] yielded an IP One EC50 of over 10 µM and a b-arrestin2 EC50 of over 10 µM. In experiment [2], the IP One EC50 was over 10 µM, the b-arrestin2 EC50 came to 3.6 µM and the b-arrestin2 Max came out at 86.6%.
In the case of RVYIHPRVYIHPRVYIHP (cyclic) [SEQ ID NO: 36 (Cyclo(Arg-Val-Tyr-Ile-His-Pro-Arg-Val-Tyr-Ile-His-Pro-Arg-Val-Tyr-Ile-His-Pro))], in experiment [1], the IP One EC50 was over 10 µM, the b-arrestin2 EC50 is 1.2 µM and the b-arrestin2 Max was determined as 39.5%. In experiment [2], the IP One EC50 amounted to 0.1 µM, the IP One Max worked out at 19.2%, the b-arrestin2 EC50 came to 1.9 µM and the b-arrestin2 Max stood at 32.8%.
On to RVYIHP-NH2 [SEQ ID NO: 13 (Arg-Val-Tyr-Ile-His-Pro-NH2)], for which, in experiment [1], the IP One EC50 is over 10 µM, the b-arrestin2 EC50 came out at 4.6 µM and the b-arrestin2 Max was determined as 43.4%. Also, in experiment [2], the IP One EC50 was over 10 µM, the b-arrestin2 EC50 was found to be 43 µM and the b-arrestin2 Max was found to be 165%.
As to ERVYYHP-NH2 [SEQ ID NO: 59 (Glu-Arg-Val-Tyr-Tyr-His-Pro-NH2)], in experiment [1], the IP One EC50 was over 10 µM, the b-arrestin2 EC50 amounted to 1.4 µM and the b-arrestin2 Max came out at 19.5%. In experiment [2], this molecule displayed an IP One EC50 of over 10 µM, a b-arrestin2 EC50 of 0.82 µM and a b-arrestin2 Max of 27.8%.
With ARVYIHPA (N-methyl residue; C-terminal acid) [SEQ ID NO: 34 (NMAla-Arg-Val-Tyr-Ile-His-Pro-Ala-OH)], in experiment [1], the IP One EC50 is over 10 µM, the b-arrestin2 EC50 was 0.025 µM and the b-arrestin2 Max came out at 53%. In experiment [2], this molecule yielded an IP One EC50 of over 10 µM, a b-arrestin2 EC50 of 0.032 µM and a b-arrestin2 Max of 81.7%.
In experiment [1], DRVYYHP (N-methyl; C-terminal amide) [SEQ ID NO: 61 (N-Me-Asp-Arg-Val-Tyr-Tyr-His-Pro-NH2)] returned an IP One EC50 of over 10 µM, a b-arrestin2 EC50 of 1.2 µM and a b-arrestin2 Max of 37.5%. For the same molecule, in experiment [2], the IP One EC50 is over 10 µM, the b-arrestin2 EC50 came out at 2.1 µM and the b-arrestin2 Max amounted to 60.4%.

The record behind these values is patent US20240025949A1, “Beta-Arrestin Effectors and Compositions and Methods of Use Thereof” (Trevena, Inc., priority 2021, published 2024).
